Here are results for one substance from patent US20180243432A1.

In the assay the target is human HLA-A2 MHC class I molecule on the surface of target cells with no C2 epitope-peptide delivered or added (human). Briefly: flow cytometry, TCR STAR multimer staining of untreated (buffer only) target cells. (Flow cytometry measures light scatter and fluorescence of single cells or particles in a stream.)

Regarding “TCR CMV-pp65-PE STAR multimer reagent (Altor Bioscience Corp.)”, the percent of cells stained was < 5%.
